Source: paper PMC10214526, “Semisynthetic LC3 Probes for Autophagy Pathways Reveal a Noncanonical LC3 Interacting Region Motif Crucial for the Enzymatic Activity of Human ATG3” (ACS Central Science, 2023)

target: GABARAP(ΔG116)–NHNH methyl-fumarate 2 (UniProt O95166); test: cross-linking assay with probe 2, Coomassie SDS-PAGE gel densitometry; settings: GABARAP probe 2 15 μM; ATG3 C1 alanine variants 15 μM; 30 min; parent: est. 1.0; read off a plot
Sequence (O95166 1-115, stated change not applied): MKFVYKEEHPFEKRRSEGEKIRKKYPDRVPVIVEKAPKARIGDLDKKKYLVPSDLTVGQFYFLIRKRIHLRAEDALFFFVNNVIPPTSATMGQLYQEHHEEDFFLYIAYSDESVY

ATG3 C1, Q9NT62 Y111A, sequence (Q9NT62 whole entry Y111A): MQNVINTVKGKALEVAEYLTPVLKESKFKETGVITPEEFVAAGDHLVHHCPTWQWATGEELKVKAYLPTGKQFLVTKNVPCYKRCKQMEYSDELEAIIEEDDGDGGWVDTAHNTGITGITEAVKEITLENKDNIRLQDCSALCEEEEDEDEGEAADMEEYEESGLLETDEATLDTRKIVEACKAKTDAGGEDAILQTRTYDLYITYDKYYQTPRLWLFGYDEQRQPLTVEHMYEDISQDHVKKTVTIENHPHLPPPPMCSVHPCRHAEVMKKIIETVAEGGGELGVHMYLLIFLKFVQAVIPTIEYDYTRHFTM
ATG3 C1, Q9NT62 D109A, sequence (Q9NT62 other isoform, or with tags, fused parts or gaps D109A): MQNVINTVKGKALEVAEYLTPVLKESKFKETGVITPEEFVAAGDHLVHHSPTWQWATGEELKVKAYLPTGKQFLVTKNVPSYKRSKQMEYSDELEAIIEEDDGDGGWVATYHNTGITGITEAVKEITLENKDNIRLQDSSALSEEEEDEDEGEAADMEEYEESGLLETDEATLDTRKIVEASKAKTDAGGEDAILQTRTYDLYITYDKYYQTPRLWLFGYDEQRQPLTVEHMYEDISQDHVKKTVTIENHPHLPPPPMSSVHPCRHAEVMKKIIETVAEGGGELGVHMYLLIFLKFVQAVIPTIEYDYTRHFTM
ATG3 C1, Q9NT62 V108A, sequence (Q9NT62 other isoform, or with tags, fused parts or gaps V108A): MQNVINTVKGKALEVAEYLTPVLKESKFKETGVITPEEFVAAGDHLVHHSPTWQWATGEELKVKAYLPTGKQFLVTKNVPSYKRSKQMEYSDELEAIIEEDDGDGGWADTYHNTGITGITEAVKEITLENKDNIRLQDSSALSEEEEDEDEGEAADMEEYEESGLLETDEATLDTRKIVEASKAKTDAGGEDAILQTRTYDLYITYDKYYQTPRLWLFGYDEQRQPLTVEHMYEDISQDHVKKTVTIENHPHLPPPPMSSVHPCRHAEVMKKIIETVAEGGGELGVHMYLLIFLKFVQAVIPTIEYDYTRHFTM
ATG3 C1, Q9NT62 Y90A, sequence (Q9NT62 whole entry Y90A): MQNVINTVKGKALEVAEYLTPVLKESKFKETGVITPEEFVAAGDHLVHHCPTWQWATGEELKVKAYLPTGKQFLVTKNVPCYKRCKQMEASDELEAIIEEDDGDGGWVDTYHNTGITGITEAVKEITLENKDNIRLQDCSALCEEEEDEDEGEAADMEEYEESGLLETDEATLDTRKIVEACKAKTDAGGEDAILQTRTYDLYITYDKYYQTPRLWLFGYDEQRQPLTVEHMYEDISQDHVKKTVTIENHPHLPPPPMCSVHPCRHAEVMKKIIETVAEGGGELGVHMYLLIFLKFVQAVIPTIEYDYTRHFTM
ATG3 C1, Q9NT62 E99A, sequence (Q9NT62 whole entry E99A): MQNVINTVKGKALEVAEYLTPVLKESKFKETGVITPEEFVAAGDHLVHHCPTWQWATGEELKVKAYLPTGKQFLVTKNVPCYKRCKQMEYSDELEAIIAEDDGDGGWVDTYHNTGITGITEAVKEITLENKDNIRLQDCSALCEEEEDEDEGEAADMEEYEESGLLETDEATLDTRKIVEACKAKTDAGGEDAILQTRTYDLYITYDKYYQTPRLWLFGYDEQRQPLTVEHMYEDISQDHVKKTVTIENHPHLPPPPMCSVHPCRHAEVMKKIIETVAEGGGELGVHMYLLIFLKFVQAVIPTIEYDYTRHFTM
ATG3 C1, Q9NT62 E95A, sequence (Q9NT62 whole entry E95A): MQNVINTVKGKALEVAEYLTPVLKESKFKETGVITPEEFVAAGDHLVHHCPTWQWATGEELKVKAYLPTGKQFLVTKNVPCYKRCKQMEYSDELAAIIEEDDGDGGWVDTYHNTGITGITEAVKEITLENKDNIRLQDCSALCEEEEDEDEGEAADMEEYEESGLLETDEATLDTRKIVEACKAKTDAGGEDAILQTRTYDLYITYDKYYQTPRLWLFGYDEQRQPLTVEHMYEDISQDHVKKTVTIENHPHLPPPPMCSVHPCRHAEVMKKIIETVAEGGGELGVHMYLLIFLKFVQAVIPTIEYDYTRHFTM
ATG3 C1, Q9NT62 I97A, sequence (Q9NT62 whole entry I97A): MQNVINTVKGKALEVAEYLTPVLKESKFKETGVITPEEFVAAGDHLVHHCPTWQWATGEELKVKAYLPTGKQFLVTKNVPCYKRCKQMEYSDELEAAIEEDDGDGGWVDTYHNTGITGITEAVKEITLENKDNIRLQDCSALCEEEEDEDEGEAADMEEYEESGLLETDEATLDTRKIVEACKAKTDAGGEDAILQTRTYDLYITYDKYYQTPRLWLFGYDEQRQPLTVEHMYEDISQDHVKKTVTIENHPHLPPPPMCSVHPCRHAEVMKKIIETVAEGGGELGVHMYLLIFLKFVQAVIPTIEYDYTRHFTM
ATG3 C1, Q9NT62 D92A, sequence (Q9NT62 whole entry D92A): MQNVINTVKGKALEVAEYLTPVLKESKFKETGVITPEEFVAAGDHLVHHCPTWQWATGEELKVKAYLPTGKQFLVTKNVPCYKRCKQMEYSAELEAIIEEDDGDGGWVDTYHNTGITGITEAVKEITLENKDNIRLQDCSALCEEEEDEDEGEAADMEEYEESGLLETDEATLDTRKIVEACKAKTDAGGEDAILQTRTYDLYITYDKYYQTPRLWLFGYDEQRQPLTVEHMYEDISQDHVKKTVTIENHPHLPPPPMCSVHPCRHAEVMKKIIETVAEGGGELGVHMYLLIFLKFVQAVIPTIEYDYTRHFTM
ATG3 C1, Q9NT62 D102A, sequence (Q9NT62 whole entry D102A): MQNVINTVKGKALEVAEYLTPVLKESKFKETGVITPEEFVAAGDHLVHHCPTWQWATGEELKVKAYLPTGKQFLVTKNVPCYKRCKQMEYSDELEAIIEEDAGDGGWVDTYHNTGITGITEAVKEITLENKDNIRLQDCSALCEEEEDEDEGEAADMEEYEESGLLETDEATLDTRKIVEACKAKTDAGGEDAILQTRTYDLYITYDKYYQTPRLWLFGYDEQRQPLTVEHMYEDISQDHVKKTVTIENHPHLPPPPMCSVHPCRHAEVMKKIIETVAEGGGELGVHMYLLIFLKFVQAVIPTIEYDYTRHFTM
ATG3 C1, Q9NT62 W107A, sequence (Q9NT62 whole entry W107A): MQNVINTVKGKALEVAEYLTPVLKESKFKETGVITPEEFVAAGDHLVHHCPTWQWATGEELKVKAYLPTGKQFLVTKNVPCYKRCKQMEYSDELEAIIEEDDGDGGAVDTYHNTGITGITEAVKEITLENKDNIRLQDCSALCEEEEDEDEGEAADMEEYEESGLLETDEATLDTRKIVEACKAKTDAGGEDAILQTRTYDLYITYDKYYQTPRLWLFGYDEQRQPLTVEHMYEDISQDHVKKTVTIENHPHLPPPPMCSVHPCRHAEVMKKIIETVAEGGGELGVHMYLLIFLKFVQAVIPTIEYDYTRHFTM
ATG3 C1, Q9NT62 T110A, sequence (Q9NT62 other isoform, or with tags, fused parts or gaps T110A): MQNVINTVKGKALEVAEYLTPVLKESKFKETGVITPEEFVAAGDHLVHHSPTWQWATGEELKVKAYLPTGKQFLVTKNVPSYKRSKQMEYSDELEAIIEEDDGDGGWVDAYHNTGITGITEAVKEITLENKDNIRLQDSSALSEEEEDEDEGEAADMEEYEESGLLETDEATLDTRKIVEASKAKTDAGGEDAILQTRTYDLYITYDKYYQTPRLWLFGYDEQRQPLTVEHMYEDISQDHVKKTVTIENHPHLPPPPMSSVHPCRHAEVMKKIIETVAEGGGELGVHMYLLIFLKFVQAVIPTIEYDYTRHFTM
ATG3 C1, Q9NT62 D104A, sequence (Q9NT62 whole entry D104A): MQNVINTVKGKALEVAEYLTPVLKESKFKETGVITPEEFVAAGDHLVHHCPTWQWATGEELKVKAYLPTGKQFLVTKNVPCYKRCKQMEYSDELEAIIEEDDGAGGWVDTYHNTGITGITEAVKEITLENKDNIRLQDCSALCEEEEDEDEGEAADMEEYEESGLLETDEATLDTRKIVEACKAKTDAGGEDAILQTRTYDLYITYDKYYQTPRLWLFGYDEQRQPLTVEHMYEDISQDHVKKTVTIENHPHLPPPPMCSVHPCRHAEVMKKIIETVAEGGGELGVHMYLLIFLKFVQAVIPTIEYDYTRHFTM
ATG3 C1, Q9NT62 I98A, sequence (Q9NT62 whole entry I98A): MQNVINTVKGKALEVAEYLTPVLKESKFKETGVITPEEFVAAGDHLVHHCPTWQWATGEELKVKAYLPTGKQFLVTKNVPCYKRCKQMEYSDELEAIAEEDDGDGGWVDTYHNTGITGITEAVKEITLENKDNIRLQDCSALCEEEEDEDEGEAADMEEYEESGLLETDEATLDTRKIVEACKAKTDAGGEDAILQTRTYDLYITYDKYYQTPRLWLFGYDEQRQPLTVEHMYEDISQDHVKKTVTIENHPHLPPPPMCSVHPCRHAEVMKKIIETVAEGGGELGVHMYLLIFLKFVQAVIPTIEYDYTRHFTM

| Substance | ratio to parent |
| --- | --- |
| ATG3 C1, Q9NT62 I98A | 0.74 |
| ATG3 C1, Q9NT62 E99A | 0.52 |
| ATG3 C1, Q9NT62 D92A | 1 |
| ATG3 C1, Q9NT62 T110A | 0.8 |
| ATG3 C1, Q9NT62 W107A | 0.17 |

More lines, now with the values ahead:

| ratio to parent | Substance |
| --- | --- |
| 0.38 | ATG3 C1, Q9NT62 V108A |
| 0.61 | ATG3 C1, Q9NT62 Y90A |
| 0.35 | ATG3 C1, Q9NT62 E95A |
| 1.4 | ATG3 C1, Q9NT62 D109A |
| 0.55 | ATG3 C1, Q9NT62 D104A |
| 0.38 | ATG3 C1, Q9NT62 D102A |
| 0.69 | ATG3 C1, Q9NT62 Y111A |
| 0.31 | ATG3 C1, Q9NT62 I97A |
